Source: ChEMBL document CHEMBL4706520, “Development of disulfide-derived fructose-1,6-bisphosphatase (FBPase) covalent inhibitors for the treatment of type 2 diabetes” (Eur J Med Chem, 2020)

Compound: c1csc(SSc2nccs2)n1
Experiment: Covalent inhibition of FBPase WT (unknown origin) assessed as Vmax measured at 45 mins
Conditions: Homo sapiens

B1: Fructose-1,6-bisphosphatase 1 (Homo sapiens), P09467 (protein)
chain: MADQAPFDTDVNTLTRFVMEEGRKARGTGELTQLLNSLCTAVKAISSAVRKAGIAHLYGIAGSTNVTGDQVKKLDVLSNDLVMNMLKSSFATCVLVSEEDKHAIIVEPEKRGKYVVCFDPLDGSSNIDCLVSVGTIFGIYRKKSTDEPSEKDALQPGRNLVAAGYALYGSATMLVLAMDCGVNCFMLDPAIGEFILVDKDVKIKKKGKIYSLNEGYARDFDPAVTEYIQRKKFPPDNSAPYGARYVGSMVADVHRTLVYGGIFLYPANKKSPNGKLRLLYECNPMAYVMEKAGGMATTGKEAVLDVIPTDIHQRAPVILGSPDDVLEFLKVYEKHSAQ
- Vmax: 4 U/mg
